This is an account of results in US20040166109A1 (AVENTIS PHARMA S A, published 2004).

B1: LexA fusion of the PTB1 domain of the human FE65 protein (amino acids 395 to 543), expressed from pLex-FE65PTB1 (other)
chain: PPRNTNPGIKCFAVRSLGWVEMTEEELAPGRSSVAVNNCIRQLSYHKNNLHDPMSGGWGEGKDLLLQLEDETLKLVEPQSQALLHAQPIISIRVWGVGRDSGRDFAYVARDKLTQMLKCHVFRCEAPAKNIATSLHEICSKIMAERRNA
notes: Two-hybrid bait expressed in yeast strain L40; PTB1 fragment cloned between XmaI and SalI downstream of LexA; also called PTB1 domain of FE65; not shown: LexA protein encoded by vector pLex9 (pBTM116); N-terminal fusion partner

What all share (experiment): yeast two-hybrid (LexA bait, GAL4 AD prey), beta-galactosidase filter assay
For assay [1], the target named is T1, GAL4 transactivating domain fusion of the central region of human hnRNPL (amino acids 116 to 464), brain … (human, UniProt P14866 147-495, limits assumed).
T1 construct: Two-hybrid prey isolated in the screen; also called central portion of hnRNPL
T1 sequence: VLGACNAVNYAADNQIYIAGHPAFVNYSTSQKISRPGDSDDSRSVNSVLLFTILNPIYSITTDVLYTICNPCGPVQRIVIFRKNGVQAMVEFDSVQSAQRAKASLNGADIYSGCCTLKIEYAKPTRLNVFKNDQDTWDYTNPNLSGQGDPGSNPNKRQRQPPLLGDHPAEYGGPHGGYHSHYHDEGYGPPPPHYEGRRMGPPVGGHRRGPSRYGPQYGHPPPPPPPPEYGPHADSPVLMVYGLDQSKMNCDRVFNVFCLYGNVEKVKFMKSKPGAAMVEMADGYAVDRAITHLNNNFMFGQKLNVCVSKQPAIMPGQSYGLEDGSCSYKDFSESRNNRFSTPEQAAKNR

Assay [2] addresses T2, GAL4 transactivating domain fusion of the FEBP1 (FE65 Binding PTB1 domain protein) fragment of 337 amino … (human, UniProt Q9UH62 44-379, limits assumed).
T2 construct: Two-hybrid prey isolated from a human brain cDNA library; a fragment of FEBP1, limits on the whole protein not known; also called fragment of the FEBP1 protein
T2 sequence: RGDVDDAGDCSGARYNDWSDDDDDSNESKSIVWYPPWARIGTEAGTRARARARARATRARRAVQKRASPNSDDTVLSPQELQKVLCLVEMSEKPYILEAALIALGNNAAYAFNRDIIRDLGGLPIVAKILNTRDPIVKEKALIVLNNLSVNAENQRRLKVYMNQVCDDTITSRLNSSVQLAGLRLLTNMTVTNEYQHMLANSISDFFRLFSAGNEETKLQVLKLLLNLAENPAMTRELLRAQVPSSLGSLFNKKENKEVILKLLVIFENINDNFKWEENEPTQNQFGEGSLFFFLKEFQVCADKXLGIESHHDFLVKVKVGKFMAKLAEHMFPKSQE

The target of assay [3] is B1.

As to B1, the binding result in assay [1] and in assay [2] was “binds” each time.

B2: GAL4 transactivating domain fusion of the cytoplasmic domain of the APP protein, expressed from pGAD-App (other, UniProt P05067 723-770, looked up, not shown: large carriers)
chain: LKKKQYTSIHHGVVEVDAAVTPEERHLSKMQQNGYENPTYKFFEQMQN
notes: domain: cytoplasmic domain; Control prey; also called C-terminal domain of the APP
With B2, the binding result in assay [3] is listed as “no binding”.
